Experimental data as given in article PMC9039348.

Target: microtubules (MTs) polymerised from porcine brain tubulin, taxol-stabilised (porcine) (UniProt P02550)
Test: co-sedimentation; GST-rMap7D2 proteins incubated with 0.4 mg/ml taxol-stabilised MTs in polymerization buffer (80 mM PIPES/NaOH pH 6.8, 1 mM MgCl2, 1 mM EGTA, 1 mM GTP) with 15 μM taxol, 20 min at 37°C; centrifuged at 100,000g for 30 min at 37°C through a 50% sucrose cushion; supernatant and pellet by SDS-PAGE, CBB staining, densitometer; Scatchard analysis

“GST-rMap7D2 (full length) (from UniProt D4A4L4 1-763) (natural protein)” gave a Kd of 0.6 µM and a stoichiometry N (scale: tubulin α/β heterodimers per GST-rMap7D2 molecule) of 10.
